# Data taken from US20220403031A1 (WUXI BIOLOGICS IRELAND, published 2022).
# B1: AP3R2-1A3-z12-hIgG1 (Fc fusion)
# chain: EVQLVESGGGLVQPGGSLRLSCAASGHFSNLAVNWFRQAPGKERELVAGILWSGGSTFYADSVKGRFTISRGNAENMLYLQMNSLRAEDTAVYYCNTGTNWGQGTLVTVSS
# notes: VHH-Fc (hIgG1) fusion of the humanized VHH; also called W3156-AP3R2-1A3-z12-hIgG1; W3156 antibody; not shown: Fc of human IgG1
# Tests used:
# [1] = biological target: T1, human PD-L1 on CHO-K1 cells (W315-CHO-K1.hPro1.C11) (human, UniProt Q9NZQ7 19-290); assay: FACS competition on human PD-L1 CHO-K1 cells: titrated W3156 antibody mixed with 0.5 ug/mL biotinylated BMK8.hIgG4 (m5), SA-PE [A]
# T1 construct: whole, on cells; also called cell surface human PD-L1; Human PD-L1-expressing CHO-K1 cell
# T1 sequence (Q9NZQ7 19-290): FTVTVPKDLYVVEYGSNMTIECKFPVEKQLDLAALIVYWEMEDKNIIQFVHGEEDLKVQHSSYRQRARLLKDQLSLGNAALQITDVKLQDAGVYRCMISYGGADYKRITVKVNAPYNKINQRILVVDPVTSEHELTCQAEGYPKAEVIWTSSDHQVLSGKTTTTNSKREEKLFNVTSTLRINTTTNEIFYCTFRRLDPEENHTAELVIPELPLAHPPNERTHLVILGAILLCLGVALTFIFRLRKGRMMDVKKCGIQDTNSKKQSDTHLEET
# Method: (§1) Human PD-L1 expressing cells W315-CHO-K1.hPro1.C11 were transferred into 96-well U-bottom plates at a density of 1×10⁵ cells/well. […] Then the mixture was added to the cells in 96-well plates and incubated at 4° C. for 1 hour. After washing with 1×PBS/1% BSA, the secondary antibody SA-PE was applied and incubated with cells at 4° C. for 1 hour. The cells were then washed and resuspended in 1×PBS/1% BSA. MFI of the cells was measured by a flow cytometer and analyzed by FlowJo (version 7.6.1).
# [2] = biological target: T1, human PD-L1 on CHO-K1 cells …; assay: FACS on human PD-L1 CHO-K1 cells
# Method: (§2) After washing with 1×PBS/1% BSA, the secondary antibody PE-labeled goat anti-human IgG was applied and incubated with cells at 4° C. for 1 hour. […] Human IgG1 and IgG4 isotype antibodies were used as negative control. The cells were then washed and resuspended in 1×PBS/1% BSA. MFI of the cells was measured by a flow cytometer (BD) and analyzed by FlowJo (version 7.6.1).
# [3] = biological target: T1, human PD-L1 on CHO-K1 cells …; assay: FACS competition on human PD-L1 CHO-K1 cells: titrated W3156 antibody mixed with 0.5 ug/mL biotinylated BMK6.hIgG4 (m4), SA-PE [A]
# Method: as §1
# [4] = biological target: T2, mouse PD-L1 on 293F cells (W315-293F.mPro1.C1) (mouse, UniProt Q9EP73 19-290); assay: FACS on mouse PD-L1 293F cells
# T2 construct: whole, on cells; also called cell surface mouse PD-L1; Mouse PD-L1-expressing 293F cell
# T2 sequence (Q9EP73 19-290): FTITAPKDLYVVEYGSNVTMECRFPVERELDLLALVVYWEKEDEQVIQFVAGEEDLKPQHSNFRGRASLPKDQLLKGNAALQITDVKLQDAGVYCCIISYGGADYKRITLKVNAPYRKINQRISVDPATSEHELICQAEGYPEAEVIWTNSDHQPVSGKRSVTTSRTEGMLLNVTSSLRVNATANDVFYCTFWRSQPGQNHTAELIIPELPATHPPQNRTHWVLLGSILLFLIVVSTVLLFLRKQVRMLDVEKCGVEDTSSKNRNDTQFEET
# Method: as §2
# [5] = biological target: T2, mouse PD-L1 on 293F cells …; assay: FACS competition: antibody titrated against 5 ug/mL mouse PD-1 ECD mFc on mouse PD-L1 293F cells
# Method: as §2, with “Mouse PD-L1 transfected W315-293F.mPro1.C1 cells were transferred into 96-well U-bottom plates at a density of 2×10⁵ cells/well. […] After” for “After”, “anti-mouse” for “anti-human”
# [6] = biological target: T3, cynomolgus monkey PD-L1 on 293F cells (W315-293F.cynoPro1.2A2) (cynomolgus monkey, UniProt G7PSE7 19-290); assay: FACS on cynomolgus PD-L1 293F cells
# T3 construct: whole, on cells; also called cell surface monkey PD-L1; cynoPD-L1
# T3 sequence (G7PSE7 entry or part of it): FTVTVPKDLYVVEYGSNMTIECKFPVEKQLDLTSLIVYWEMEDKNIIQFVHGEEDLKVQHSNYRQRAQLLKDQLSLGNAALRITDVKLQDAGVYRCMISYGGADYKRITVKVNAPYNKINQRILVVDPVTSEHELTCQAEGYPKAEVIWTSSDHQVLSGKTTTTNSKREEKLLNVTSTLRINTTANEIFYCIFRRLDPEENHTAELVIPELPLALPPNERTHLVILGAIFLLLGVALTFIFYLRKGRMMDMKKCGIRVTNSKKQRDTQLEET
# Method: as §2
# [7] = biological target: T4, hCD86.ECD.His (SinoBiological-10699-H08H) (human, UniProt P42081 24-247); assay: ELISA on coated protein (1 ug/mL)
# T4 construct: extracellular domain; His tag
# T4 sequence (looked up): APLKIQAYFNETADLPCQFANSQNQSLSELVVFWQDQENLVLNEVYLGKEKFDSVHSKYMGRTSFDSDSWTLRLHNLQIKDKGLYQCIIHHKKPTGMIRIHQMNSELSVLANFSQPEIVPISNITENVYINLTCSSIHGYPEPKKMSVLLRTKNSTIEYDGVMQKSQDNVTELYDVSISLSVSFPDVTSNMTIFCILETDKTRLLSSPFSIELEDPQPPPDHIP
# Method: The plate was incubated at ambient temperature for 1 hour. The binding of the antibodies to the immobilized proteins was detected by HRP-labeled goat anti-human IgG antibody. The color was developed by dispensing 100 μL of TMB substrate, and then stopped by 100 μL of 2N HCl. The absorbance was read at 450 nm and 540 nm using a microplate spectrophotometer, respectively.
# [8] = biological target: T1, human PD-L1 on CHO-K1 cells …; assay: FACS competition: antibody titrated against 5 ug/mL human PD-1 ECD mFc on human PD-L1 CHO-K1 cells
# Method: as §2, with “Human PD-L1 transfected W315-CHO-K1.hPro1.C11 cells were transferred into 96-well U-bottom plates at a density of 1×10⁵ cells/well. […] After” for “After”, “anti-mouse” for “anti-human”
# [9] = biological target: T3, cynomolgus monkey PD-L1 on 293F cells …; assay: FACS affinity on cynomolgus PD-L1 cells, quantitative beads
# Method: Binding affinities of testing antibodies to cell surface human, cynomolgus and mouse PD-L1 were determined by flow cytometry on the engineering cell lines, respectively. The cells were transferred in to 96-well U-bottom plates (BD) at a density of 5×10⁴ cells/well. Antibodies to be tested were 1: 2-fold serially diluted in 1% BSA/1×PBS and incubated with cells at 4° C. for 1 hr. Then, the plates were centrifuged at 1500 rpm for 4 mins and the supernatant was discarded. The secondary antibody, Alexa647 conjugated goat anti-human IgG Fc (Jackson, Cat No. 109-605-098, Lot No. 121363), was added to re-suspend cells and incubated at 4° C. in the dark for 30 min. The cells were washed once and re-suspended in 100 μL 1% BSA/1×PBS, then measured by flow cytometry (BD Canto II) and analyzed by FlowJo. Fluorescence intensity was converted to bound molecules/cell based on the quantitative beads (Quantum™ MESF Kits, Bangs Laboratories). KD value was calculated by Graphpad Prism5.
binder,measurement,setting,value
B1,IC50 (read off the curve),[1],~3 nM
same,EC50,[2],0.458 nM
same,IC50 (read off the curve),[3],~3 nM
same,EC50,[4],1.24 nM
same,IC50,[5],2.14 nM
same,EC50,[6],2.06 nM
same,binding result,[7],no binding (tested: 66.7 nM)
same,IC50,[8],0.871 nM
same,Kd,[9],7.3 nM
